Legend:
hvsORF57Δ146 [1] = target: T1, hvsORF57Δ146 (herpesvirus saimiri (HVS), UniProt P13199 146-417); test: SPR; SPR: 20 mM HEPES, 250 mM NaCl, 0.05% Tween-20, pH 7.4, 25 C, protein up to 1 uM; NMR: 20 mM Na phosphate, 50 mM NaCl, 50 mM L-Arg, 50 mM L-Glu, 1 mM EDTA, 2 mM; conditions: protein: recombinant; tags: thioredoxin/Strep tag cleaved by HRV3C; residue 145 is cloning Gly; chain copies: 2; label: 5'-biotin
UL69 200-540 = target: T2, UL69 200-540 (HCMV, UniProt P16749 200-540); test: as above; conditions: protein: recombinant; tags: Strep-tag (purification); chain copies: 4; label: 5'-biotin
T2 sequence: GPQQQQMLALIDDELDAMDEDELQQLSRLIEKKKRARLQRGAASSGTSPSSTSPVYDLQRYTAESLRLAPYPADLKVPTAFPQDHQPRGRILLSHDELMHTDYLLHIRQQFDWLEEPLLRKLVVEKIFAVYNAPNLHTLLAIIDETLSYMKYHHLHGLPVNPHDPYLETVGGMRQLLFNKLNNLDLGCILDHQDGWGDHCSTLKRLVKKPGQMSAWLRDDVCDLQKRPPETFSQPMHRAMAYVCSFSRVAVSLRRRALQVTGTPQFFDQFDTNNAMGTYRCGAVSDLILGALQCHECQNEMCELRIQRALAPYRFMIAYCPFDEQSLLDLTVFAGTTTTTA

ksORF57Δ153 = target: T3, ksORF57Δ153 (Kaposi's sarcoma-associated herpesvirus …, UniProt Q2HR75 153-455); test: as above; conditions: protein: recombinant; tags: thioredoxin/Strep tag cleaved by HRV3C; chain copies: 2; label: 5'-biotin
T3 sequence: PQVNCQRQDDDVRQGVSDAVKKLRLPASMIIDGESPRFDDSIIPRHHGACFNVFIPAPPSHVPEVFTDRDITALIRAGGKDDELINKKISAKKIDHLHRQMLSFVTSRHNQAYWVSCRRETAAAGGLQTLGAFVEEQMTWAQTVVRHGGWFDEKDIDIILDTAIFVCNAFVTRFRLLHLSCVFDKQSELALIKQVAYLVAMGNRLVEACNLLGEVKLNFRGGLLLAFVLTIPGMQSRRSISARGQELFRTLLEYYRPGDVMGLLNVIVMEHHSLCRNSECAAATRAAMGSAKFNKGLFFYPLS

ICP27Δ241 = ICP27Δ241 (HSV-1, UniProt P10238 241-512); test: as above; conditions: protein: recombinant; tags: Strep-tag (purification); label: 5'-biotin
hvsORF57Δ146 [2] = target: T1, hvsORF57Δ146; test: X-ray crystallography; same U-bend interaction as PAN17; data not shown; SPR: 20 mM HEPES, 250 mM NaCl, 0.05% Tween-20, pH 7.4, 25 C, protein up to 1 uM; NMR: 20 mM Na phosphate, 50 mM NaCl, 50 mM L-Arg, 50 mM L-Glu, 1 mM EDTA, 2 mM; conditions: protein: recombinant; tags: thioredoxin/Strep tag cleaved by HRV3C; residue 145 is cloning Gly; chain copies: 2
[3] = target: the molecule itself; test: SEC-MALS; 0.5 ml at 1 mg/ml on Superdex 200 10/300GL, gel filtration buffer (20 mM HEPES, 150 mM NaCl, 50 mM L-Arg, 50 mM L-Glu, 1 mM TCEP, pH 7.4); homo-dimer
ksORF57 68-178 = target: T4, ksORF57 68-178 (Kaposi's sarcoma-associated herpesvirus …, UniProt Q2HR75 68-178); test: NMR HSQC; equimolar, 50 uM protein; substantial broadening; SPR: 20 mM HEPES, 250 mM NaCl, 0.05% Tween-20, pH 7.4, 25 C, protein up to 1 uM; NMR: 20 mM Na phosphate, 50 mM NaCl, 50 mM L-Arg, 50 mM L-Glu, 1 mM EDTA, 2 mM; conditions: protein: recombinant; tags: His-tag (purification), 15N labelled
T4 sequence: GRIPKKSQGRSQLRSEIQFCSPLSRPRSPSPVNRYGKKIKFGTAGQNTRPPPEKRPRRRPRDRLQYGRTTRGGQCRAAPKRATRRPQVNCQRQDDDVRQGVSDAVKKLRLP

hvsORF57Δ146 [4] = target: T1, hvsORF57Δ146; test: X-ray crystallography; Zn2+ in protein; Mg2+/Ca2+ in crystallization; SPR: 20 mM HEPES, 250 mM NaCl, 0.05% Tween-20, pH 7.4, 25 C, protein up to 1 uM; NMR: 20 mM Na phosphate, 50 mM NaCl, 50 mM L-Arg, 50 mM L-Glu, 1 mM EDTA, 2 mM; conditions: protein: recombinant; tags: thioredoxin/Strep tag cleaved by HRV3C; residue 145 is cloning Gly; chain copies: 2

CCGUCCCCGCCGCU (ssRNA) [14mer1 (5'-biotin)]
binding result (hvsORF57Δ146 [1]): no binding | binding result (UL69 200-540): binds | binding result (ksORF57Δ153): no binding | binding result (ICP27Δ241): no binding

GAUUUUGU (ssRNA) [PAN 42-49]
binding result (hvsORF57Δ146 [2]): binds

B1: HVS ORF57 residues 146–417 (hvsORF57Δ146) (domain or fragment)
chain: PLLKLFDISILPKSGEPKLFLPVPSLPCQEAEKTNDKYVLAMAQRAMHDVPISSKQLTANLLPVKFKPLLSIVRYTPNYYYWVSMRKETIASANLCTVAAFLDESLCWGQQYLKNDFIFSENGKDIILDTSSALLSQLVHKIKMLPFCHCLMQTTPQDHIVKQVCYLIASNNRILDAVRYLQTSVIKSPIVLLLAYAVCLPAAIICTKNETQLYSHCMRILKEYRPGDVMNILHESLTQHLNKCPSSTCAYTTRAIVGTKANTTGLFFLPTQ
notes: ORF57 (ICP27 homolog) of herpesvirus saimiri (HVS), residues 146-417, the C-terminal ICP27-homology domain; Selenomethionine-derivatised protein was used for crystals of the free form; native protein for the RNA complex and SEC-MALS; also called C-terminal IHD of hvsORF57; C-terminal ICP27-homology domain of HVS ORF57; source: E. coli T7 express LysY, purified (StrepTrap HP, HRV3C cleavage, …)
stoichiometry N [3]: 2

CAGUCGCGAAGAGG (ssRNA) [14merS (5'-biotin)]
binding result (UL69 200-540): binds | binding result (ICP27Δ241): no binding

CAGUCGCGAAGAGG (ssRNA) [14merS]
binding result (ksORF57 68-178): binds

CACCUAUGGAUUUUGUG (ssRNA) [PAN17 (crystal)]
binding result (hvsORF57Δ146 [4]): binds

B2: KSHV ORF57 residues 153–455 (ksORF57Δ153) (domain or fragment)
chain: T3 sequence
notes: ORF57/Mta (ICP27 homolog) of Kaposi's sarcoma-associated herpesvirus (KSHV), residues 153-455, the C-terminal ICP27-homology domain; also called C-terminal IHD of ksORF57; source: E. coli T7 express LysY, purified (StrepTrap HP, HRV3C cleavage, Superdex 75); not shown: thioredoxin, N-terminal, cleaved
stoichiometry N [3]: 2

CACCUAUGGAUUUUGUG (ssRNA) [PAN17 (5'-biotin)]
binding result (hvsORF57Δ146 [1]): binds | binding result (UL69 200-540): binds | binding result (ksORF57Δ153): binds | binding result (ICP27Δ241): no binding

— publication PMC6393246, “Structural identification of conserved RNA binding sites in herpesvirus ORF57 homologs: implications for PAN RNA recognition” (Nucleic Acids Research, 2018)
